The results in this text go back to patent US20200002405A1 (ADMINISTRATORS OF THE TULANE EDUCATIONAL FUND, published 2020).

Read-outs that look alike come from different tables or passages of the source.

In experiment [1] the target is T1, LCMV WE strain GP (LCMV, WE strain, UniProt P07399 2-498).
T1 construct: whole, on cells
T1 sequence: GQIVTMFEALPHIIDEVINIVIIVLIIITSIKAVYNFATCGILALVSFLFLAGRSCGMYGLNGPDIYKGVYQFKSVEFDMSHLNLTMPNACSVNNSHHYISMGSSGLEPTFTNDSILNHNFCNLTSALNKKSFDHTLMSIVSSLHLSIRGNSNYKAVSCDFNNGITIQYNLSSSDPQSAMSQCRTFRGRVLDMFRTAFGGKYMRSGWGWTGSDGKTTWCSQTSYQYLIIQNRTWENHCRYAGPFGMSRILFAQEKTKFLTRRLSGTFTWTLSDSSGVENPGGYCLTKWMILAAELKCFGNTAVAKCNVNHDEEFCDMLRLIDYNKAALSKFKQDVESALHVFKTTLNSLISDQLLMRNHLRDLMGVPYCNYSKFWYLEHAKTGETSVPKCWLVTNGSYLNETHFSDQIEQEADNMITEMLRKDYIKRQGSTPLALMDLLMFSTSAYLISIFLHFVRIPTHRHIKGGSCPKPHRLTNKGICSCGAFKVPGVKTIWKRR
Put plainly: immunofluorescence, 293T cells transfected with GP plasmid.

Experiment [2] addresses LASV Pinneo (lineage I) glycoprotein (Lassa virus, strain Pinneo). Put plainly: cell-based or functional assay.
Experiment [3] has as its target LASV 237 (lineage III) glycoprotein (Lassa virus, strain 237). Put plainly: cell-based or functional assay.
For experiment [4], the target named is LASV A19 (lineage II) glycoprotein (Lassa virus, strain A19). The experiment can be described thus: cell-based or functional assay.
Experiment [5] has as its target T2, LASV Josiah (lineage IV) glycoprotein, full-length GP (Lassa virus, Josiah strain, UniProt P08669 2-491).
T2 sequence: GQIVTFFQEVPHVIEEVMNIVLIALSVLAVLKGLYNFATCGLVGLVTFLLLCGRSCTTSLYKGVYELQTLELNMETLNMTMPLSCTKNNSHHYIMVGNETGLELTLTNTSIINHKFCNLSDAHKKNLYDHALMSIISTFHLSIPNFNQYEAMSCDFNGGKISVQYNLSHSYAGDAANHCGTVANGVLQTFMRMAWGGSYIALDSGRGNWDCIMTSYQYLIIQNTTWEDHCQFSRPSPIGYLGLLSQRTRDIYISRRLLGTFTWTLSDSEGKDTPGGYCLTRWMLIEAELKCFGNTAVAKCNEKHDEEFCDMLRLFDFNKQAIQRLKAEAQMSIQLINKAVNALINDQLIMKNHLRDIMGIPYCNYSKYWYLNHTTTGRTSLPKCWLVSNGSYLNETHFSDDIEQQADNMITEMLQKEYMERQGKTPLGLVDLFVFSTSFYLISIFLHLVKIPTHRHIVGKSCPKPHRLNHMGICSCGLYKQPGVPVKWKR
The experiment can be described thus: cell-based or functional assay.

Experiment [6] concerns the target T2, LASV Josiah (lineage IV) glycoprotein, …. Put plainly: cell-based or functional assay. The source holds these as a separate data set.

B1: 19.7E (antibody, V domains shown)
VH: EVQLVESGGGLVRPGGSLRLSCAASGFSFSSYSMHWVRHVPGKGLVWVSYINSDGSTKIYADSVKGRFSISRDNAKNKLYLQMDSLRVEDTAVYSCVRLVHYDWSPFVWGQGTLVTVSS
VL: EIVLTQSPSTLSASVGDRVTITCRASQSINNWLAWYQEKPGKAPKLLINKASSLESGVPSRFSGSGSGTEFTLTITSLQPDDFATYYCQQYNSNSWTFGQGTKVDMKR
In the case of B1, the binding result in experiment [1] is given as “no binding”.

B2: 8.11G (antibody, V domains shown)
VH: QVQLQESGPGLVKPSETLSLTCSISGVSTRNYYWSWIRQSPGKGLEWIGYIFNIGTTNYNPSLKSRLTISVDTSKNQFSLKITSVTAADTAVYYCASGFEYGDYTFDYWGQGTPVTVSS
VL: EIVLTQSPATLSVSPGGRASLSCRASQSIGDKLSWYQQKPGQAPRLVIYGAYTRATDISPRFSGSRSGTDFNLTISRMQSGDFAVYFCQQYENWPRTFGQGTKLEIKR
On to B2, for which, in experiment [1], the binding result is “no binding”. The “IC50 (neutralization)” value was 3.25 µg/mL in experiment [2]; 1.17 µg/mL in experiment [3]; 1.48 µg/mL in experiment [4]; 0.361 µg/mL in experiment [5]; over 10 µg/mL in experiment [6]. For the same molecule, the “IC80 (neutralization)” value was 10.5 µg/mL in experiment [2]; 3.64 µg/mL in experiment [3]; 4.59 µg/mL in experiment [4]; 1.74 µg/mL in experiment [5]; over 10 µg/mL in experiment [6].

B3: 10.4B (antibody)
VH: DQVQLVQSGGGVVQPGRSLRVSCVTSGFNFRAYGMHWVRQIPGKGLEWVADIWSAETNRHYADSVKGRFTISRDNSKSTLYLQMNSLRAEDTGVYFCAKARPGYDYVVDLWGQGTLVIVSSASTKGPSVFPLAPCSRSTSGGTAALGCLVKDYFPEPVTVSWNSGALTSGVHTFPAVLQSSGL
VL: DEIVLTQSPSSLSASVGDRVTITCRASRDINTYLGWFQQRPGKAPKSLIYGASNLQNGVPSRFSGSGSGTYFTLTINGLQTEDFATYYCQQYSIYPLSLGGGTKADMKRTVAAPSVFIFPPSDEQLKSGTASVVCLLNNFYPREAKVQWKVDNALQSGNSQESVTEQDSKDSTYSLSSTLTLSKADYEKHKVYACEVTHQGLSSP
Regarding B3, the binding result in experiment [1] is reported as “no binding”. For the same molecule, the “IC50 (neutralization)” value in experiment [2] is over 20 µg/mL; in experiment [3], over 20 µg/mL; in experiment [4], over 20 µg/mL; in experiment [5], over 20 µg/mL; in experiment [6], over 10 µg/mL. Besides, the “IC80 (neutralization)” value is over 20 µg/mL in experiment [2]; over 20 µg/mL in experiment [3]; over 20 µg/mL in experiment [4]; over 20 µg/mL in experiment [5]; over 10 µg/mL in experiment [6].

B4: 36.9F (antibody, V domains shown)
VH: EVQLVQSGGGLVKAGGSLKLSCGASGFTFSSYSMSWVRQAPGKGLEWVSYISSGGSSIHYADSVKGRFTISRDNAKNSLYLQMKNLRVDDTGRYYCVRDPRSGISGRYGMDVWGQGTTVTVSS
VL: DIVMTQSPDSLAVSLGERATINCKSSQTVLFTSYYVAWYQQKPGQPPKLLFSGASSRESGVPDRFSAGGSGTDFYLTINSLQAEDVADYYCQQYHTPPFTFGGGTKLEIRR
As for B4, the “IC50 (neutralization)” value in experiment [2] was 6.98 µg/mL; in experiment [3], 4.69 µg/mL; in experiment [4], 13 µg/mL; in experiment [5] it was 18 µg/mL; in experiment [6], 0.57 µg/mL. Further, the “IC80 (neutralization)” value is over 20 µg/mL in experiment [2]; 19.4 µg/mL in experiment [3]; over 20 µg/mL in experiment [4]; over 20 µg/mL in experiment [5]; 2.23 µg/mL in experiment [6].

B5: 18.5C (antibody)
VH: DEVQLVESGGGLVRPGGSLRLSCAAAGFTFKSYSMNWVRQAPGRGLEWVSSITSGGSKTYYADVVKGRFTVSRDNAKQSLYLQMNSLRAEDTAIYFCARSLHSTSQPSYMDVWGRKITVIVSSASTKGPSVFPLAPSSKSTSGGTAALGCLVKDYFPEPVTVSWNSGALTSGVHTFPAVLQSSGLYSLSSVVTVPSSSLGTQTYICNVNHKPSNTKVDKRVEPKSCDKTHTCPPCPAPELLGGPSVFLFPPKPKDTLMISRTPEVTC
VL: DDIQMTQSPGTLSLSPGERATLSCRASQSVISYYVAWYQHKGGQAPRLLIYGASSRATGVPDRFSGSGSGTDFTLTISSLEPEDFALYYCQYYGSSPLWAFGQGTKVEIKRTVAAPSVFIFPPSDEQLKSGTASVVCLLNNFYPREAKVQWKVDNALQSGNSQESVTEQDSKDSTYSLSSTLTLSKADYEKHKVYACEVTHQGLSSPVTKSFNRGEC
Regarding B5, the “IC50 (neutralization)” value in experiment [2] is 6.11 µg/mL; in experiment [3], 0.621 µg/mL; in experiment [4], 1.2 µg/mL; in experiment [5], 1.94 µg/mL; in experiment [6] it was over 10 µg/mL. The “IC80 (neutralization)” value was 12.2 µg/mL in experiment [2]; 3.23 µg/mL in experiment [3]; 4.63 µg/mL in experiment [4]; 3.98 µg/mL in experiment [5]; over 10 µg/mL in experiment [6].

B6: 9.8A (antibody, V domains shown)
VH: EVQLVQSGGRLVQPGGSLRLSCVASGFTFSSHAMSWVRQAPGKGLEWVSGFSGSSGTTKYADSVKGRFTISRDNSKKTLYLQMNSLRAEDTAVYYCAKGFSPFRGVQFPYFDYWGQGTLVTVSS
VL: DIVMTQSPSTLSASVGDRVTITCRASQSIDRWLAWYQQKPGKAPKLLIYQASSLERGVPSRFSGSGSGTEFTLTISSLQPDDFATYYCQQYNGYPLTFGGGTKVEIKR
For B6, the “IC50 (neutralization)” value in experiment [2] was 1 µg/mL; in experiment [3] it was 0.193 µg/mL; in experiment [4], 0.15 µg/mL; in experiment [5], 1.31 µg/mL; in experiment [6], 0.139 µg/mL. The “IC80 (neutralization)” value was determined as 2.59 µg/mL in experiment [2]; 0.494 µg/mL in experiment [3]; 0.527 µg/mL in experiment [4]; 2.42 µg/mL in experiment [5]; 0.253 µg/mL in experiment [6].

B7: 25.10C (antibody, V domains shown)
VH: QVQLQESGGGLVKPGGSLRLSCTASGFNFNKYNMNWVRQAPGKGLEWVSSISALSTYIYYADSLKGRFTVSRDNAKNSLFLQMNSLRDDDTAVYYCAREIRRASTWSADLWGRGTLVTVSS
VL: DIQMTQSPSSLSASVGDRVIITCRASQSISSSLNWYQQKPGKAPKLLIYAAVNLETGVPSRFSGSGFGTDFTLAISNVQPEDFATYYCQQSDTRTFGRGTKLDVKR
Regarding B7, the binding result in experiment [1] is “no binding”.

B8: 25.6A (antibody, V domains shown)
VH: QVQLQESGGGLVKAGGSLRLSCAASGFMFERYSLHWVRQTPGKGLEWVSSISSLSGSHINYADSVKGRFTISRDNAKNSLSLQMNSLRVEDTAIYYCARDRRSGSSPVPLDVWGQGTTVTVSS
VL: DLPVLTQPASVSGSPGQSITISCTGTSSDVGAYNYVSWYQQHPGKAPKLIIYEVKIRPSGVSNRFSGSKSGNTASLTISGLQAEDEADYFCSSYSTNSPWVFGGGTKVTVLR
Consider B8, for which the “IC50 (neutralization)” value was 1.83 µg/mL in experiment [2]; 0.169 µg/mL in experiment [3]; 0.483 µg/mL in experiment [4]; 0.743 µg/mL in experiment [5]; 0.188 µg/mL in experiment [6]. The “IC80 (neutralization)” value worked out at 3.11 µg/mL in experiment [2]; 0.603 µg/mL in experiment [3]; 3.51 µg/mL in experiment [4]; 2 µg/mL in experiment [5]; 0.3 µg/mL in experiment [6].

B9: NE13 (antibody, V domains shown)
VH: EVQLVESGGGLVKPGGSLRLSCVASGFTFSSYSMNWVRQAPGKGLEWVSSISSGSSYIEYADSVKGRLTISRDNAKKSLYLQLNSLRAEDTAVYYCARHTARIDSYHGMDVWGQGTTVTVSS
VL: ETTLTQSPGTLSLSPGERATLSCRASQSVSSTYLAWYQQKPGQSPRLLIYGASSRATGIPDRFSGSGSGTQFTLTINRLEPEDFAVYYCQQFGSPWTFGQGTKVEIKR
On to B9, for which the binding result in experiment [1] is on record as “no binding”.
